Data from the supplement of paper PMC10567573.

B1: TRIB1 (parent)
chain: EIGTSDQIVPEYQEDSDISSFFC
B2: FCHO1 (parent)
chain: DKLALCHLELTRKLQDLIKDVLRY

Variants of: B1
Assay: protein stability index of a GFP-peptide fusion (GPS, HEK-293T) (PSI 1-6); higher = more stable
Settings: c terminus: native
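Further: lentivirally expressed fusions sorted by FACS into six bins by GFP to DsRed ratio, PSI derived from sequencing read proportions per bin multiplied by bin number.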

Variant	protein stability index
EIGTSDQIVPEYQEDSDISSFYC	2.03
EIGTSDQIVPEYQEDSDISSFFA	3.08
EIGTSDQIVPEYQEDSDISSFFD	2.51
EIGTSDQIVPEYQEDSDISSFFE	2.94
EIGTSDQIVPEYQEDSDISSFFF	2.29
EIGTSDQIVPEYQEDSDISSFFG	3.67
EIGTSDQIVPEYQEDSDISSFFH	3.65
EIGTSDQIVPEYQEDSDISSFFI	2.67
EIGTSDQIVPEYQEDSDISSFFK	4.49
EIGTSDQIVPEYQEDSDISSFFL	2.9
EIGTSDQIVPEYQEDSDISSFFM	1.73
EIGTSDQIVPEYQEDSDISSFFN	3.73
EIGTSDQIVPEYQEDSDISSFFP	3.44
EIGTSDQIVPEYQEDSDISSFFQ	3.76
EIGTSDQIVPEYQEDSDISSFFR	4.18
EIGTSDQIVPEYQEDSDISSFFS	2.8
EIGTSDQIVPEYQEDSDISSFFT	2.1
EIGTSDQIVPEYQEDSDISSFFV	2.77
EIGTSDQIVPEYQEDSDISSFFW	1.95
EIGTSDQIVPEYQEDSDISSFFY	2.26

Variants of: B2
Assay: as above
Settings: c terminus: a fixed tail appended

Variant	protein stability index
EKLALCHLELTRKLQDLIKDVLRY	2.15
FKLALCHLELTRKLQDLIKDVLRY	3.44
GKLALCHLELTRKLQDLIKDVLRY	5.1
KKLALCHLELTRKLQDLIKDVLRY	2.37
NKLALCHLELTRKLQDLIKDVLRY	4.01
PKLALCHLELTRKLQDLIKDVLRY	4.01
QKLALCHLELTRKLQDLIKDVLRY	4.47
RKLALCHLELTRKLQDLIKDVLRY	3.61
SKLALCHLELTRKLQDLIKDVLRY	2.45
TKLALCHLELTRKLQDLIKDVLRY	2.77
VKLALCHLELTRKLQDLIKDVLRY	3.12
WKLALCHLELTRKLQDLIKDVLRY	1.41
YKLALCHLELTRKLQDLIKDVLRY	2.63
DALALCHLELTRKLQDLIKDVLRY	1.43
DCLALCHLELTRKLQDLIKDVLRY	3.86
DDLALCHLELTRKLQDLIKDVLRY	3.04
DELALCHLELTRKLQDLIKDVLRY	2.28
DHLALCHLELTRKLQDLIKDVLRY	2.72
DILALCHLELTRKLQDLIKDVLRY	2.57
DLLALCHLELTRKLQDLIKDVLRY	2.64
DMLALCHLELTRKLQDLIKDVLRY	3.83
DNLALCHLELTRKLQDLIKDVLRY	1.26
DPLALCHLELTRKLQDLIKDVLRY	1.39
DQLALCHLELTRKLQDLIKDVLRY	2.45
DSLALCHLELTRKLQDLIKDVLRY	2.21

Variant	protein stability index
DTLALCHLELTRKLQDLIKDVLRY	1.97
DKAALCHLELTRKLQDLIKDVLRY	1.44
DKCALCHLELTRKLQDLIKDVLRY	2.51
DKDALCHLELTRKLQDLIKDVLRY	2.09
DKEALCHLELTRKLQDLIKDVLRY	2.3
DKFALCHLELTRKLQDLIKDVLRY	2.93
DKHALCHLELTRKLQDLIKDVLRY	2.12
DKKALCHLELTRKLQDLIKDVLRY	2.23
DKNALCHLELTRKLQDLIKDVLRY	2.25
DKSALCHLELTRKLQDLIKDVLRY	1.79
DKTALCHLELTRKLQDLIKDVLRY	1.81
DKVALCHLELTRKLQDLIKDVLRY	3.04
DKLCLCHLELTRKLQDLIKDVLRY	2.52
DKLFLCHLELTRKLQDLIKDVLRY	2.01
DKLGLCHLELTRKLQDLIKDVLRY	1.6
DKLILCHLELTRKLQDLIKDVLRY	3.21
DKLLLCHLELTRKLQDLIKDVLRY	1.98
DKLPLCHLELTRKLQDLIKDVLRY	2.33
DKLQLCHLELTRKLQDLIKDVLRY	3.43
DKLSLCHLELTRKLQDLIKDVLRY	1.81
DKLWLCHLELTRKLQDLIKDVLRY	3.22
DKLAECHLELTRKLQDLIKDVLRY	1.62
DKLAHCHLELTRKLQDLIKDVLRY	2.98
DKLAICHLELTRKLQDLIKDVLRY	1.94
DKLAPCHLELTRKLQDLIKDVLRY	1.82

Variant	protein stability index
DKLASCHLELTRKLQDLIKDVLRY	3.18
DKLATCHLELTRKLQDLIKDVLRY	1.72
DKLAWCHLELTRKLQDLIKDVLRY	4.03
DKLAYCHLELTRKLQDLIKDVLRY	2.01
DKLALAHLELTRKLQDLIKDVLRY	2.64
DKLALDHLELTRKLQDLIKDVLRY	1.15
DKLALEHLELTRKLQDLIKDVLRY	2.04
DKLALKHLELTRKLQDLIKDVLRY	3
DKLALMHLELTRKLQDLIKDVLRY	3.01
DKLALNHLELTRKLQDLIKDVLRY	3.3
DKLALPHLELTRKLQDLIKDVLRY	2.37
DKLALQHLELTRKLQDLIKDVLRY	3.1
DKLALRHLELTRKLQDLIKDVLRY	2.52
DKLALSHLELTRKLQDLIKDVLRY	3.13
DKLALTHLELTRKLQDLIKDVLRY	2.99
DKLALVHLELTRKLQDLIKDVLRY	2.53
DKLALWHLELTRKLQDLIKDVLRY	2.01
DKLALCALELTRKLQDLIKDVLRY	1.84
DKLALCCLELTRKLQDLIKDVLRY	2.12
DKLALCDLELTRKLQDLIKDVLRY	3.07
DKLALCFLELTRKLQDLIKDVLRY	2.4
DKLALCILELTRKLQDLIKDVLRY	1.49
DKLALCLLELTRKLQDLIKDVLRY	1.56
DKLALCMLELTRKLQDLIKDVLRY	2.67
